# Measurements as given in the supplement of paper PMC10126150.
# ± gives the standard deviation of the averaged measurements.
# System: ATP
# Experiment: switch fluorescence ratio, 500 uM ATP over buffer (Cy3 cluster intensity, sum of 5 cycles each) (fold (ratio)); higher = stronger signal-on switching upon ATP binding; sequences stand for … in TCGTCGGCAGCGTCAGATGTGTATAAGAGACAGTTTTTTTTTTTTTTTTTTTTTTTTT…TC
# Conditions: aptamer strand: ATP DNA aptamer (quencher-CACCTGGGGGAGTATTGCGGAGGAAGG + anchor), 100 nM annealed; ATP concentration: 500 uM
# In short: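 Imaging in selection buffer was followed by imaging after 15 min with 500 uM ATP at 22 °C, for Cy3-labelled switching-strand clusters annealed to 100 nM quencher-labelled ATP aptamer on a modified Illumina MiSeq flow-cell. Five of these buffer/ATP cycles ran, separated by NaOH stripping and re-annealing. The fluorescence ratio per cluster is summed target-cycle over summed buffer-cycle Cy3 intensity, averaged per switch-domain sequence; clusters outside 100-1000 RFU were removed.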
# 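Also: ATP exposure 15 min at 22 °C before imaging.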
row,Sequence,switch fluorescence ratio
1,CAGTGGAGTG,0.98561 ± 8.7e-05
2,TTAGTGTATC,0.982 ± 0.059
3,GCTCTTTGGG,1.06 ± 0.13
4,TCCAGGGGAA,1.03 ± 0.014
5,GATCACTATA,1.03 ± 0.054
6,CGTCGCCGGT,1 ± 0.0078
7,TTGGGTGGTA,0.988 ± 0.028
8,TTACTATTGG,0.978 ± 0.013
9,TGGGGCGACG,0.994 ± 0.034
10,CGTTAAACTT,1.01 ± 0.012
11,CGTTTGAAAA,1.019 ± 0.0058
12,ACAGGGGTGT,1.09 ± 0.014
13,ATTGAGAATC,0.962 ± 0.035
14,TTTGAGCCCC,1.04 ± 0.1
15,TCGAGAATGG,0.952 ± 0.017
16,ACTTTAGTTA,0.9756 ± 0.0025
17,ACATCGGATG,0.995 ± 0.025
18,CATTATGGAG,1 ± 0.047
19,CATGTTTTGG,0.9836 ± 0.0043
20,CATTATATCG,1 ± 0.023
21,TTGGTAGGGC,0.97013 ± 0.0006
22,CGCGGCTATT,1.07 ± 0.034
23,AATTGGAGGG,1 ± 0.029

row,Sequence,switch fluorescence ratio
1,TACCGGGCTT,0.978 ± 0.02
2,GTTTTATTGC,0.975 ± 0.04
3,TTGTTGGTGG,0.9856 ± 0.0066
4,AATGGGGTCA,0.991 ± 0.024
5,AATTGTTGTC,0.985 ± 0.01
6,AGCGGTTTCC,1.029 ± 0.0093
7,AATTGGGTAT,1.0014 ± 0.00066
8,TATTGTGAAT,1 ± 0.014
9,AAATAGGGGT,1 ± 0.039
10,TGAACTTGGT,0.929 ± 0.12
11,GGTGTGATTT,1 ± 0.025
12,TGTTTGGTTG,1.01 ± 0.017
13,GCATGGGGCC,1 ± 0.011
14,TGGGAGATAT,1 ± 0.028
15,CAGTAATTTT,0.999 ± 0.013
16,TATGGTGGGT,0.995 ± 0.027
17,GCTATCCCTG,1.05 ± 0.018
18,CCAATCGGGG,1.03 ± 0.087
19,CAGGATCTTG,0.974 ± 0.031
20,ACTGTAATCC,1.16 ± 0.046
21,GTTAGTGGGG,0.992 ± 0.014
22,AGCTCCGACA,1.63 ± 0.058
23,AGAGGGGATG,1.02 ± 0.0081

row,Sequence,switch fluorescence ratio
1,GAAGGCAGCG,1.03 ± 0.017
2,GGGGAGAGGC,1.08 ± 0.11
3,TTCCTTTTAC,1.16 ± 0.008
4,CCATGTTGCG,0.982 ± 0.012
5,TATCGGCGTG,0.98796 ± 0.00031
6,GGTTACGGC,1.07 ± 0.17
7,ATGTGTCTG,0.987 ± 0.014
8,TGGTGCGGCG,1.09 ± 0.031
9,TGGTAGACGT,0.968 ± 0.016
10,TTTGTATCAT,1.017 ± 0.0076
11,GGGAGGAGAC,1.02 ± 0.053
12,AAGAAGAGGT,1.15 ± 0.17
13,TATCGTAGGA,0.977 ± 0.032
14,GGCGGGGTTG,0.996 ± 0.019
15,GGGAGTAAAG,0.989 ± 0.013
16,GAATCCGGGA,1.05 ± 0.087
17,CAGTGTGGTT,1.11 ± 0.24
18,AGAGGTTGGG,0.98 ± 0.04
19,TCAAAGGGGT,1.052 ± 0.0047
20,TTTATCCGAG,1.04 ± 0.042
21,GCGCTGGGTG,1.11 ± 0.16
22,TGCGTTAAAA,0.994 ± 0.042
23,GAGTATCTAG,0.986 ± 0.038

row,Sequence,switch fluorescence ratio
1,GGGGAATCGT,0.948 ± 0.027
2,TGGTGAGGGA,0.99 ± 0.014
3,GCGACGAAGG,1.02 ± 0.012
4,TTTACTTATT,1 ± 0.019
5,GTGCCCTGAC,1.29 ± 0.041
6,CGATTCGGTG,0.9698 ± 0.0031
7,TTTCATCGCC,1.01 ± 0.012
8,TCATTATGAA,0.987 ± 0.054
9,GGCGAAGTTC,0.99 ± 0.021
10,GGAACGCAGG,0.9981 ± 0.0022
11,GCGGGCGGGA,1.031 ± 0.0098
12,TTGACAAACG,1.1 ± 0.054
13,GCGTAGAATC,1.02 ± 0.018
14,TTTCTTTAAG,0.985 ± 0.04
15,CATGTTATCC,1.01 ± 0.034
16,AAAAAATTTA,0.996 ± 0.043
17,TTAATTGAAG,0.958 ± 0.04
18,TTTTTTTGCG,1.02 ± 0.069
19,TGGTAGGGGA,1.04 ± 0.03
20,GGGAAAATGT,1.02 ± 0.038
21,TTTGAGGCAT,1.71 ± 1.2
22,TATTTTGAGA,0.997 ± 0.012
23,AAACGGTGTG,1.03 ± 0.037

row,Sequence,switch fluorescence ratio
1,TGGTGCAATC,2.36 ± 0.86
2,AAGTACGAGG,1.27 ± 0.17
3,ATGTGTAGAG,0.995 ± 0.027
4,GCTCTATTAT,1.11 ± 0.16
5,CGGATGAGGT,0.987 ± 0.052
6,CAATGGGACC,1.011 ± 0.0013
7,TCATGAGGGG,0.972 ± 0.036
8,ATGATAAAAT,1.11 ± 0.13
9,CAGTAAGTGG,0.999 ± 0.02
10,GTTTATTACT,1.01 ± 0.021
11,GTGGCATTTT,1.01 ± 0.03
12,TCAGTGTGCC,0.995 ± 0.03
13,TTGATTTAGG,0.995 ± 0.028
14,CCCGATCATA,1.02 ± 0.017
15,GCAGCCGAAT,1.04 ± 0.0093
16,GGGGGGAGTT,0.999 ± 0.038
17,AACGACGGGG,1.01 ± 0.033
18,AGAGGTTACG,0.994 ± 0.046
19,TGATAAATGT,1.13 ± 0.19
20,TTTCTTGGGG,0.979 ± 0.018
21,ATGACGCTGG,1.03 ± 0.13
22,AAGGGACATT,1.01 ± 0.012
23,AATATTGATG,1.02 ± 0.044

row,Sequence,switch fluorescence ratio
1,CAATGGGTAC,0.969 ± 0.024
2,TGGGCCGCTT,1.04 ± 0.028
3,GAGAGTTTAA,1.013 ± 0.0051
4,GTGATCTGAT,1.01 ± 0.029
5,GTGGGGATTA,1 ± 0.018
6,CGGTCATTCA,1.02 ± 0.055
7,CAGGTAAGGA,0.969 ± 0.01
8,GAAATAACTC,1.36 ± 0.43
9,ATGGGTCCGG,1.02 ± 0.037
10,AGGGAGCTGT,1.023 ± 0.0015
11,GGGGTAAGGG,1 ± 0.028
12,CTCACATTGA,1.05 ± 0.025
13,ACGGCGGTGC,1.034 ± 0.0078
14,CACGGGTGGC,1.152 ± 0.011
15,GAGGGGAGGG,1.04 ± 0.065
16,CTTTCAAAAA,1.03 ± 0.015
17,CGGGTAAGTG,0.97 ± 0.014
18,GGGATCAAGA,0.998 ± 0.023
19,ACTGCCTTCA,1.52 ± 0.12
20,TCGGCATGGG,1.11 ± 0.11
21,CGCTGTGCGG,0.99 ± 0.052
22,AAATTTGAAT,1.0094 ± 0.00021
23,GATTCTTTTC,0.991 ± 0.014

row,Sequence,switch fluorescence ratio
1,GAGCTATGGG,0.983 ± 0.043
2,GTTGGTTCTT,1 ± 0.039
3,CGATCTTGTT,0.982 ± 0.018
4,TTTGAACGTG,0.969 ± 0.017
5,CGCGGATTCT,1.04 ± 0.021
6,GGGTGCATAG,1.03 ± 0.045
7,TTTTCTAAGG,0.989 ± 0.085
8,CACGTGGGGG,1.007 ± 0.006
9,ACTAGCTCTG,1 ± 0.023
10,TGATGGAGAG,0.97 ± 0.034
11,GGAGCGCTGG,1.05 ± 0.02
12,TTTGGGGAAC,1.02 ± 0.035
13,GAGGGGATTT,1.01 ± 0.013
14,AGGTTTTGGT,1 ± 0.055
15,TAACACCTCT,0.988 ± 0.068
16,AGAATAGTGG,0.96 ± 0.037
17,ATTTTGGTTG,1.01 ± 0.035
18,AGTTGGTTAG,1.004 ± 0.005
19,ATTACACTGC,1.01 ± 0.066
